From patent US20230270815A1 (RAJIV GANDHI CENTRE FOR BIOTECHNOLOGY, published 2023) come the findings set out here.

One assay has as its target T1, GRPR (UniProt P30550 1-384, limits assumed).
T1 construct: whole, on cells
The experiment in a line: co-immunofluorescence on HSC-4 cells.

The target in the next assay is T2, DSG3 (UniProt P32926 50-999, limits assumed).
T2 construct: whole, on cells
T2 sequence (looked up): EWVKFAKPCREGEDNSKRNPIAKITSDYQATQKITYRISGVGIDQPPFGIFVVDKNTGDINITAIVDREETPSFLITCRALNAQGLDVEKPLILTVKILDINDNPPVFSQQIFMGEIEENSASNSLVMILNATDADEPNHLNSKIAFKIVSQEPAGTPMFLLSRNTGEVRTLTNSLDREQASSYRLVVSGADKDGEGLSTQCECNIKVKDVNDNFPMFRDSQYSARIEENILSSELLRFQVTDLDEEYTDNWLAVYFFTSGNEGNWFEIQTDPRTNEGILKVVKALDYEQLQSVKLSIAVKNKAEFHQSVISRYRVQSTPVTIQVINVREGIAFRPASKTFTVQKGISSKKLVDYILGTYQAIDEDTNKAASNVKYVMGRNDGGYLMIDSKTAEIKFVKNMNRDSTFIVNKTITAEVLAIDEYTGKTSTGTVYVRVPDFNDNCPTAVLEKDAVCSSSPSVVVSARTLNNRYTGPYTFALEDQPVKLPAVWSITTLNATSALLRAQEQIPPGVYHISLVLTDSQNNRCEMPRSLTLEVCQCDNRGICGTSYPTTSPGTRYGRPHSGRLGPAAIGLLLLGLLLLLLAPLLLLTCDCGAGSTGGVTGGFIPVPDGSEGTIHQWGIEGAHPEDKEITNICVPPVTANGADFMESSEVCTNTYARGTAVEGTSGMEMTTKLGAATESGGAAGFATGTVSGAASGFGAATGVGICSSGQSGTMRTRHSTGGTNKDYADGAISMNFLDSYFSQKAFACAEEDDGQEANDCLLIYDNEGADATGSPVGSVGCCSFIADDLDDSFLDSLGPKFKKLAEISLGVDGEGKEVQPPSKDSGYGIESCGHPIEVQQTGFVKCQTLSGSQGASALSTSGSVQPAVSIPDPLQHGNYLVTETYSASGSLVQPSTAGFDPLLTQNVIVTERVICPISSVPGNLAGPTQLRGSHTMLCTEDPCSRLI
The experiment in a line: co-immunofluorescence on HSC-4 cells.

Another assay addresses T3, DLL1 (UniProt O00548 18-723, limits assumed).
T3 construct: whole, on cells
T3 sequence (looked up): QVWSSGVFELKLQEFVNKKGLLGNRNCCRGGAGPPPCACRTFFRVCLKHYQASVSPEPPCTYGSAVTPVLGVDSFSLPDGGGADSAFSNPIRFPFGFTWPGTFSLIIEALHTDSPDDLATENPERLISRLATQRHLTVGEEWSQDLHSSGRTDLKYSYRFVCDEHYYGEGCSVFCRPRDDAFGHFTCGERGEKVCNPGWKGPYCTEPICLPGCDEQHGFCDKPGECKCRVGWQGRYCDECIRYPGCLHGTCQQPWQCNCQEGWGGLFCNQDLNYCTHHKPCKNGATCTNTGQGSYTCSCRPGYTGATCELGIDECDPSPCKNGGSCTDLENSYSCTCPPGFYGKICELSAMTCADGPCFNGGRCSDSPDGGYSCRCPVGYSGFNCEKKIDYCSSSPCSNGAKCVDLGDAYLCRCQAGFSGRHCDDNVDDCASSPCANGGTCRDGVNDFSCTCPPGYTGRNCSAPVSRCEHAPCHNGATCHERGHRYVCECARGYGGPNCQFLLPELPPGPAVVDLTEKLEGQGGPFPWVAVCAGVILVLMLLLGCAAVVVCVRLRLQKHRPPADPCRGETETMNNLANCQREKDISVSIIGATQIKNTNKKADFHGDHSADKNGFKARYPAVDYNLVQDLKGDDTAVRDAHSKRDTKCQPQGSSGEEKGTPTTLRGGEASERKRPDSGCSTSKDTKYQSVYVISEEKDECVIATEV
The assay can be described thus: co-immunofluorescence on HSC-4 cells.

Assay [1] has as its target T4, IL6Rα (Interleukin 6 Receptor α) (UniProt P08887 20-468, limits assumed).
T4 sequence (looked up): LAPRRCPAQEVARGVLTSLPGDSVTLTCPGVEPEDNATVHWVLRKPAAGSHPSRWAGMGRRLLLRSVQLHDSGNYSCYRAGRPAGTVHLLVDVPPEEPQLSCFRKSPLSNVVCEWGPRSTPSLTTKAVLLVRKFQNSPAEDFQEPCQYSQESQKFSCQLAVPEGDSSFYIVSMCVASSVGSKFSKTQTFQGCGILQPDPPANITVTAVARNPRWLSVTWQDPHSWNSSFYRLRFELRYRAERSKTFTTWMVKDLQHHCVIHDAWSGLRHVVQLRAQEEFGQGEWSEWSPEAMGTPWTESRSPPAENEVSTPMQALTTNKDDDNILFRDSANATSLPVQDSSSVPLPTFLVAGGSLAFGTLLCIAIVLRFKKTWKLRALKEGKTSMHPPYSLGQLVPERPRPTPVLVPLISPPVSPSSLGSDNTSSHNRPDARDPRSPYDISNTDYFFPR
The assay can be described thus: cell-based or functional assay.

No end group written: not given here.

T1 sequence (P30550 whole entry): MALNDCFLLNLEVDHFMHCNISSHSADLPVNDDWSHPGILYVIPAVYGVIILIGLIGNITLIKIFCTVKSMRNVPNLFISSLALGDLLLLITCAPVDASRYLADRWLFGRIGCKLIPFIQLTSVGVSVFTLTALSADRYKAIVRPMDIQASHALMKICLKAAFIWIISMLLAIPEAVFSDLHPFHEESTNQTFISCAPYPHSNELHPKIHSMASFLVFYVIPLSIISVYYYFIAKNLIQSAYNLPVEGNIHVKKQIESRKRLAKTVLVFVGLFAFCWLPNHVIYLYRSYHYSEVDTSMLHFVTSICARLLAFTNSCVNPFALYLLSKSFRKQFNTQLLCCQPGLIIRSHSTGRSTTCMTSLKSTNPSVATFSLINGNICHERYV

B1: SSTP1 (Temporin1Dau1) (peptide)
peptide: FLPLLISALTSLFPKLGK
modifications: not fully specified
notes: Chemically synthesized mature peptide of 18 residues from frog skin secretion; No C-terminal amide is printed for SSTP1; also called SSTP1-biotin; SSTP1-Alexa Fluor-488
On to B1, for which the binding result with GRPR, with DSG3 and with DLL1 was “no binding” throughout. Also, the “growth inhibition of HSC-4 cells, MTT assay, IC50” value in assay [1] stood at 10.2 µM. Further, the “growth inhibition of MDA-MB-231 cells, MTT assay, IC50” value in assay [1] came to 4.5 µM.
